Square brackets hold non-standard residues; d marks the D form. * marks the point of attachment. Palmitoyl = CCCCCCCCCCCCCCCC(=O)*
B1: CXCR4 i1 loop compound 153 (peptide)
peptide: Palmitoyl-MGYQKKLRSMTDKYRA-NH2
SMILES: CCCCCCCCCCCCCCCC(=O)N[C@@H](CCSC)C(=O)NCC(=O)N[C@@H](Cc1ccc(O)cc1)C(=O)N[C@@H](CCC(N)=O)C(=O)N[C@@H](CCCCN)C(=O)N[C@@H](CCCCN)C(=O)N[C@@H](CC(C)C)C(=O)N[C@@H](CCCNC(=N)N)C(=O)N[C@@H](CO)C(=O)N[C@@H](CCSC)C(=O)N[C@H](C(=O)N[C@@H](CC(=O)O)C(=O)N[C@@H](CCCCN)C(=O)N[C@@H](Cc1ccc(O)cc1)C(=O)N[C@@H](CCCNC(=N)N)C(=O)N[C@@H](C)C(N)=O)[C@@H](C)O
B2: CXCR4 i1 loop compound 164 (peptide)
peptide: Palmitoyl-MGYQKKLRSM[dT]DKYRL-NH2
B3: CXCR4 i1 loop compound 135 (peptide)
peptide: Palmitoyl-MGYQKKARSMTDKYRL-NH2
SMILES: CCCCCCCCCCCCCCCC(=O)N[C@@H](CCSC)C(=O)NCC(=O)N[C@@H](Cc1ccc(O)cc1)C(=O)N[C@@H](CCC(N)=O)C(=O)N[C@@H](CCCCN)C(=O)N[C@@H](CCCCN)C(=O)N[C@@H](C)C(=O)N[C@@H](CCCNC(=N)N)C(=O)N[C@@H](CO)C(=O)N[C@@H](CCSC)C(=O)N[C@H](C(=O)N[C@@H](CC(=O)O)C(=O)N[C@@H](CCCCN)C(=O)N[C@@H](Cc1ccc(O)cc1)C(=O)N[C@@H](CCCNC(=N)N)C(=O)N[C@@H](CC(C)C)C(N)=O)[C@@H](C)O
B4: CXCR4 i1 loop compound 130 (peptide)
peptide: Palmitoyl-MAYQKKLRSMTDKYRL-NH2
SMILES: CCCCCCCCCCCCCCCC(=O)N[C@@H](CCSC)C(=O)N[C@@H](C)C(=O)N[C@@H](Cc1ccc(O)cc1)C(=O)N[C@@H](CCC(N)=O)C(=O)N[C@@H](CCCCN)C(=O)N[C@@H](CCCCN)C(=O)N[C@@H](CC(C)C)C(=O)N[C@@H](CCCNC(=N)N)C(=O)N[C@@H](CO)C(=O)N[C@@H](CCSC)C(=O)N[C@H](C(=O)N[C@@H](CC(=O)O)C(=O)N[C@@H](CCCCN)C(=O)N[C@@H](Cc1ccc(O)cc1)C(=O)N[C@@H](CCCNC(=N)N)C(=O)N[C@@H](CC(C)C)C(N)=O)[C@@H](C)O
B5: CXCR4 i1 loop compound 152 (peptide)
peptide: Palmitoyl-MGYQKKLRSMTDKYAL-NH2
SMILES: CCCCCCCCCCCCCCCC(=O)N[C@@H](CCSC)C(=O)NCC(=O)N[C@@H](Cc1ccc(O)cc1)C(=O)N[C@@H](CCC(N)=O)C(=O)N[C@@H](CCCCN)C(=O)N[C@@H](CCCCN)C(=O)N[C@@H](CC(C)C)C(=O)N[C@@H](CCCNC(=N)N)C(=O)N[C@@H](CO)C(=O)N[C@@H](CCSC)C(=O)N[C@H](C(=O)N[C@@H](CC(=O)O)C(=O)N[C@@H](CCCCN)C(=O)N[C@@H](Cc1ccc(O)cc1)C(=O)N[C@@H](C)C(=O)N[C@@H](CC(C)C)C(N)=O)[C@@H](C)O
B6: CXCR4 i1 loop compound 133 (peptide)
peptide: Palmitoyl-MGYQAKLRSMTDKYRL-NH2
SMILES: CCCCCCCCCCCCCCCC(=O)N[C@@H](CCSC)C(=O)NCC(=O)N[C@@H](Cc1ccc(O)cc1)C(=O)N[C@@H](CCC(N)=O)C(=O)N[C@@H](C)C(=O)N[C@@H](CCCCN)C(=O)N[C@@H](CC(C)C)C(=O)N[C@@H](CCCNC(=N)N)C(=O)N[C@@H](CO)C(=O)N[C@@H](CCSC)C(=O)N[C@H](C(=O)N[C@@H](CC(=O)O)C(=O)N[C@@H](CCCCN)C(=O)N[C@@H](Cc1ccc(O)cc1)C(=O)N[C@@H](CCCNC(=N)N)C(=O)N[C@@H](CC(C)C)C(N)=O)[C@@H](C)O
B7: CXCR4 i1 loop compound 170 (peptide)
peptide: Palmitoyl-MGYQKK[dL]RSMTDKYRL-NH2
B8: CXCR4 i1 loop compound 168 (peptide)
peptide: Palmitoyl-MGYQ[dK]KLRSMTDKYRL-NH2
B9: CXCR4 i1 loop compound 169 (peptide)
peptide: Palmitoyl-MGYQK[dK]LRSMTDKYRL-NH2
B10: CXCR4 i1 loop compound 136 (peptide)
peptide: Palmitoyl-MGYQKKLASMTDKYRL-NH2
SMILES: CCCCCCCCCCCCCCCC(=O)N[C@@H](CCSC)C(=O)NCC(=O)N[C@@H](Cc1ccc(O)cc1)C(=O)N[C@@H](CCC(N)=O)C(=O)N[C@@H](CCCCN)C(=O)N[C@@H](CCCCN)C(=O)N[C@@H](CC(C)C)C(=O)N[C@@H](C)C(=O)N[C@@H](CO)C(=O)N[C@@H](CCSC)C(=O)N[C@H](C(=O)N[C@@H](CC(=O)O)C(=O)N[C@@H](CCCCN)C(=O)N[C@@H](Cc1ccc(O)cc1)C(=O)N[C@@H](CCCNC(=N)N)C(=O)N[C@@H](CC(C)C)C(N)=O)[C@@H](C)O
B11: CXCR4 i1 loop compound 159 (peptide)
peptide: Palmitoyl-MGYQKKLRSMTDKYR[dL]-NH2
B12: CXCR4 i1 loop compound 171 (peptide)
peptide: Palmitoyl-MGYQKKL[dR]SMTDKYRL-NH2
B13: CXCR4 i1 loop compound 134 (peptide)
peptide: Palmitoyl-MGYQKALRSMTDKYRL-NH2
SMILES: CCCCCCCCCCCCCCCC(=O)N[C@@H](CCSC)C(=O)NCC(=O)N[C@@H](Cc1ccc(O)cc1)C(=O)N[C@@H](CCC(N)=O)C(=O)N[C@@H](CCCCN)C(=O)N[C@@H](C)C(=O)N[C@@H](CC(C)C)C(=O)N[C@@H](CCCNC(=N)N)C(=O)N[C@@H](CO)C(=O)N[C@@H](CCSC)C(=O)N[C@H](C(=O)N[C@@H](CC(=O)O)C(=O)N[C@@H](CCCCN)C(=O)N[C@@H](Cc1ccc(O)cc1)C(=O)N[C@@H](CCCNC(=N)N)C(=O)N[C@@H](CC(C)C)C(N)=O)[C@@H](C)O
B14: CXCR4 i1 loop compound 173 (peptide)
peptide: Palmitoyl-MGYQKKLRS[dM]TDKYRL-NH2
B15: CXCR4 i1 loop compound 131 (peptide)
peptide: Palmitoyl-MGAQKKLRSMTDKYRL-NH2
SMILES: CCCCCCCCCCCCCCCC(=O)N[C@@H](CCSC)C(=O)NCC(=O)N[C@@H](C)C(=O)N[C@@H](CCC(N)=O)C(=O)N[C@@H](CCCCN)C(=O)N[C@@H](CCCCN)C(=O)N[C@@H](CC(C)C)C(=O)N[C@@H](CCCNC(=N)N)C(=O)N[C@@H](CO)C(=O)N[C@@H](CCSC)C(=O)N[C@H](C(=O)N[C@@H](CC(=O)O)C(=O)N[C@@H](CCCCN)C(=O)N[C@@H](Cc1ccc(O)cc1)C(=O)N[C@@H](CCCNC(=N)N)C(=O)N[C@@H](CC(C)C)C(N)=O)[C@@H](C)O
B16: CXCR4 i1 loop compound 129 (peptide)
peptide: Palmitoyl-AGYQKKLRSMTDKYRL-NH2
SMILES: CCCCCCCCCCCCCCCC(=O)N[C@@H](C)C(=O)NCC(=O)N[C@@H](Cc1ccc(O)cc1)C(=O)N[C@@H](CCC(N)=O)C(=O)N[C@@H](CCCCN)C(=O)N[C@@H](CCCCN)C(=O)N[C@@H](CC(C)C)C(=O)N[C@@H](CCCNC(=N)N)C(=O)N[C@@H](CO)C(=O)N[C@@H](CCSC)C(=O)N[C@H](C(=O)N[C@@H](CC(=O)O)C(=O)N[C@@H](CCCCN)C(=O)N[C@@H](Cc1ccc(O)cc1)C(=O)N[C@@H](CCCNC(=N)N)C(=O)N[C@@H](CC(C)C)C(N)=O)[C@@H](C)O
B17: CXCR4 i1 loop compound 165 (peptide)
peptide: Palmitoyl-[dM]GYQKKLRSMTDKYRL-NH2
B18: CXCR4 i1 loop compound 172 (peptide)
peptide: Palmitoyl-MGYQKKLR[dS]MTDKYRL-NH2
B19: CXCR4 i1 loop compound 163 (peptide)
peptide: Palmitoyl-MGYQKKLRSMT[dD]KYRL-NH2
B20: CXCR4 i1 loop compound 161 (peptide)
peptide: Palmitoyl-MGYQKKLRSMTDK[dY]RL-NH2
B21: CXCR4 i1 loop compound 166 (peptide)
peptide: Palmitoyl-MG[dY]QKKLRSMTDKYRL-NH2
B22: CXCR4 i1 loop compound 162 (peptide)
peptide: Palmitoyl-MGYQKKLRSMTD[dK]YRL-NH2
B23: CXCR4 i1 loop compound 132 (peptide)
peptide: Palmitoyl-MGYAKKLRSMTDKYRL-NH2
SMILES: CCCCCCCCCCCCCCCC(=O)N[C@@H](CCSC)C(=O)NCC(=O)N[C@@H](Cc1ccc(O)cc1)C(=O)N[C@@H](C)C(=O)N[C@@H](CCCCN)C(=O)N[C@@H](CCCCN)C(=O)N[C@@H](CC(C)C)C(=O)N[C@@H](CCCNC(=N)N)C(=O)N[C@@H](CO)C(=O)N[C@@H](CCSC)C(=O)N[C@H](C(=O)N[C@@H](CC(=O)O)C(=O)N[C@@H](CCCCN)C(=O)N[C@@H](Cc1ccc(O)cc1)C(=O)N[C@@H](CCCNC(=N)N)C(=O)N[C@@H](CC(C)C)C(N)=O)[C@@H](C)O
B24: CXCR4 i1 loop compound 160 (peptide)
peptide: Palmitoyl-MGYQKKLRSMTDKY[dR]L-NH2
B25: CXCR4 i1 loop compound 167 (peptide)
peptide: Palmitoyl-MGY[dQ]KKLRSMTDKYRL-NH2

These binders were tested against CXCR4 receptor (human, UniProt P61073 1-352) (assay: cell-based or functional assay).
Chain of CXCR4 receptor (P61073 whole entry): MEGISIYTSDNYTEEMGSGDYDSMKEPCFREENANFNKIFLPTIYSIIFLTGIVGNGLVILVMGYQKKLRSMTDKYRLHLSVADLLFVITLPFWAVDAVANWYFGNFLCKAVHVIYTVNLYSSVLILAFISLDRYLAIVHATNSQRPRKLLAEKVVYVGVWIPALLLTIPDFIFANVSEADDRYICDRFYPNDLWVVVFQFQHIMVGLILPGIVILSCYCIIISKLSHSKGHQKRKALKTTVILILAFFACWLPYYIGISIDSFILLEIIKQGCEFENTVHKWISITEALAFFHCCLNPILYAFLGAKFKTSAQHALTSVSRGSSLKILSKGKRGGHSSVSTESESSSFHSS

Binder	IC50 (nM), calcium flux, CCRF-CEM
B1	> 10000 nM
B2	322 nM
B3	175 nM
B4	125 nM
B5	> 10000 nM
B6	200 nM
B7	72 nM
B8	119 nM
B9	88 nM
B10	302 nM
B11	> 10000 nM
B12	72 nM
B13	250 nM
B14	97 nM
B15	147 nM
B16	197 nM
B17	112 nM
B18	90 nM
B19	623 nM
B20	> 10000 nM
B21	129 nM
B22	291 nM
B23	213 nM
B24	5730 nM
B25	116 nM

From US20130210709A1 (ANCHOR THERAPEUTICS, published 2013)
